This data set is described as follows: yeast display, Sf9 membrane polyspecificity reagent, FACS + sequencing; frameworks hold sequencing errors. The essentials:
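A nanobody's polyreactivity label depends on the gate it was sorted from. Yeast display cells were stained with 10% biotinylated, detergent-solubilized Sf9 membrane reagent for 1 hour at 4 °C, enriched on streptavidin microbeads and sorted by FACS. The low and high (top ~1%) gates were set on anti-HA fluorescence for expression and streptavidin fluorescence for reagent binding.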
For “QVQLVESGGGLVQAGGSLRLSCAASGRTIRYYAMGWYRQAPGKERELVAAISWNGANTYYADSVKGRFTISRDNAKNTVYLQMNSLKPEDTAVYYCAATYYRWKGYDYWGQGTQVTVSS”, the “polyreactivity (PSR sort gate)” value is recorded as “high polyreactivity”. As to “QVQLVESGGGLFQAGGSLRLSCAASGGTFNFYAMGWYRQAPGKERELVARIDSGVSTNYADTVKGRFTISRDNAKNTVYLQMNSLKPEDTAVYYCNAERYRSRRYPYRYLYYYWGQGTQVTVSS”, the “polyreactivity (PSR sort gate)” value is “high polyreactivity”.

Turning to “QVQLVDSGRGLVQAGGSLRLSCAASGFTVGVNAMGWDRQAPGKERELVAAITRSGGTTYYADSVQGRFTISRDKAKNTVYLQMNSLKPEDTAVYYCNRRARSYADDYWGQGTQVTVSS”, the “polyreactivity (PSR sort gate)” value is given as “high polyreactivity”. The value for “QVQLVESGGGLVQAGGSLRLSCAASGRTFQQNAMGWYRQAPGKERELVATIRNGGNTNYADSVKGRFTISRDNAKNTVYLQLNSLKPEDTAVYYSAARVYTHGLWGYNYWGQGTQVTVSS” was “high polyreactivity”; that for “QVQLVESGGGLVQAGGSLRLSCAASGSIFQWNAMGWYRQAPGKERELVAAISTRGGRTYYADSVKGRFTISRDNAKNTVYLQMNSLKPEDTAVYYCAKQYGSYGRYYKYYYWGQGTQVTVSS” was “high polyreactivity”; that for “QDQLVESGGGLVQAGGSLRLSCAASGSTFAGYAMGWYRQAPGKERELVATITYSGGSTYYADSVKGRFTISRDNAKNTVYLQMNSLKPEDTAVYYCAKKASYWWGYEYWGQGTQVTVSS” was “low polyreactivity”. The value for “QVQLQESGGGLVQAGGSLRLSCAASGSIFDYVSMGWYRQAPGEERELVVTITLGSNTYYADSVKGRFTISSDIAKNTVYLQMNSLNPEDTAVYYCAASALWGYVYPYWGLGTQVTVSS” was “high polyreactivity”; that for “QVQLVESGGGLVQAGGSLRLSCAASGSTFEYYAMGWYRQAPGKERELVATISIDGRTNYADSVKGRFTISRDNAKYTVYLQMNSLKPEDTAVYYCAASDLTAISSKYDYWGQGTQVTVSS” was “low polyreactivity”; that for “QLQLVESGGRIVQAGGSLRLSCAASGITIRYYAMGWYRQAPGKERELVAAITRSGSTTYADSVKGRFTISRDNAKNTVYFQMNSLKPEDTAVYYCAVDFYYLTGGVDYWGQGTQVTVSS” was “low polyreactivity”.

“QVQLVESGGGLVQAGGSLRLSCAASGSTFRAYAMGWYRQAPGKEREFVASISWSGGRTYYADSVKGRFTISRDNAKNTVYLQMNSLKPEDTAVYYCAVDLSTHDYDYWGQGTQVTVSS”: the “polyreactivity (PSR sort gate)” value is reported as “low polyreactivity”. In the case of “QVQLVESGGGLVQAGGSLRLSCAASGSIFNNNAMGWYRQAPGKERELVADITASGGNTNYADSVKGRFTISRDNAKNTVYLQMNSLKPEDTAVYYCNAGGFYGTLFFPLDIYYVGYDYWGQGTQVTVSS”, the “polyreactivity (PSR sort gate)” value is “low polyreactivity”. With “QVQLVESGGGLVQAGGSLRLSCAASGFIFRYYAMGWYRQAPGKERELVAAISWSGGSTYYADSVKGRFTISRDNAKNTVYLQMNSLKPEDTAVYYCNARYKYLFTVSRYDYWGQGTQVTVSS”, the “polyreactivity (PSR sort gate)” value is listed as “high polyreactivity”. The value for “QVQLVESGGGLVQAGGSLRLSCAASGLTFGSNTMGWYRQAPGKERELVAAITSNGGSTYYADSVKRRFTISRDYAKNTVYLQMNSLKPEDTAVYYCAARSYDGYYRYYYWGQGTQVTVSS” was “low polyreactivity”. To “QVQLVESGGGLVQAGGSLRLSCAASGRTFVGYAMGWYRQAPGKERELVASITASGGRTYYADSVKGRFTISRDNAKNTVYLQMNSLKPEDTAVYYCAAYIHWSEDYWGQGTQVTVSS” belongs “low polyreactivity”; to “QVQLVESGGGLVQAGGSLRLSCAASGFTFYKNAMGWYRQAPGKERELVAAITRRGSRTYYADSVKGRFTISRDNAKNTVYLQMNSLKPEDTAVYYCAADDGSDAEYYYWGQGTQVTVSS”, “high polyreactivity”; to “QVQLVESGGGLVQAGGSLRLSCAASGRTFRYYAMGWYRPAPGKERELVATITGSGGSTYYADSVKGRFTISRDNAKNTVYLQMNSLKPEDTAVYYCNARKVRYPYRWYDYWGQGTQVTVSS”, “high polyreactivity”. Take “QVQLVESGGGLVQAGGSLRLSCAASGNIFTNNAMGWYRQAPGKERELVAAISSSGGRTFYADSVKGRFTITRDNAKNTVNLQMNSLKPEDTSVYYCNKVASTRVSYLDMEYWGQGTQVTVSS”: the “polyreactivity (PSR sort gate)” value is “high polyreactivity”. To “QVQLVESGGGLVQAGGSLRLSCAASGFIFYRDAMGWYRPAPGKERELVAAISSRGVSTYYADSVKGRFTISRDNAKNTVYLLMNSLKPEDTAVYSCARISRYYALYDYWGQGTQVTVSS” belongs “high polyreactivity”; to “QVQLVESGGGLVQAGGSLRLSCAASGFTFASYAMGWYRQAPGKERELVAAITRRGGSTNYADSVKGRFTISRDNAKNTVFLQMISLKPEDTAVYYCNDLHGVWDPAYDYWGQGTQVTVSS”, “low polyreactivity”; to “QVQLVESGGGLVQAGGSLRLSCAASGSILGLNAMGWYRQAPGKERELVAAITSRGGSTYYADSVKGRFTISRDNAKNTVYLQMNSLKPEDTAVYYCNREYVRVNYQYWYYAEYDYWGQGTQVTVSS”, “low polyreactivity”. For “QVQLVESGGGLVQAGGSLRLSCAASGRIFDHYAMGWYRQAPGKERELVAAITRSGGITYYADSVKGRFTISRDNAKNTVYLQMNSLKPEDTAVYYCAALSYRYTDKFDYWGQGTQVTVSS”, the “polyreactivity (PSR sort gate)” value was “low polyreactivity”.

In the case of “QVQLVESGGGLVQAGGSLRLSCAASGLIFRGYAMGWYRQAPGKERELVAAISTTGGSTFYADSVKGRFTISRDNAKNTVYLQMNSLKREDTAVYYCNADWAPTGFSGGYPYDYWGQGTQVTVSS”, the “polyreactivity (PSR sort gate)” value is “high polyreactivity”. To “QVQLVESGGGLVQAGGSLRLSCAASGIIFYDYAMGWYRQAPGKERELVAAIDTGDSTYYADSVKGRFTISRDNAKKTVDLQMNSLKPEDTAVYYCAADYIFYTYIFYWGQGTQVTVSS” belongs “high polyreactivity”; to “QVQLVESGGGLVQAGGSLRLSCAASGGIFSQYAMGWYRQAPGKERELVAAINSGVGTNYADSVKGRFTISRDNAKNTVFLQMNSLKPEDTAVYYCAATDDRLWTFDVASYRNDYWGQGTQVTVSS”, “low polyreactivity”.

Consider “QVQLVESGGGLVQAGGSLRLSCAASGRTFPSYAMGWYRQAPGKERELVAVIRGGGSTKYADSVKGRFTISRDNAKNTVYLQMNSLKPEDTAVYYCATRGYPKFNYIYYYWGQGTQVTVSS”, for which the “polyreactivity (PSR sort gate)” value was “high polyreactivity”. On to “QVQLVESGGGLVQAGGSLRLSCAASGSIFPVNVMGWYRQEPGKERELVARITSGGSTIYADSVKGRFTISRDNAKNTVYLQMNSLKPEDTAVYYCAARQYHWYLPSYWYRYDYWGQGTQVTVSS”, for which the “polyreactivity (PSR sort gate)” value is on record as “high polyreactivity”. The value for “QVQLVESGGGLVQAGGSLRLSCAASGFIMDYNTMGGYRQAPGKERELVAAISSSGDTTYYAASVKGRFTISRDNAKNSVYLQMNCLKPDDTAVYYCAREYGDGYEYWGQGTQVTVSS” was “low polyreactivity”; that for “QVQLVESGGGLVQAGGSLRLSCAASGTTFGRNAMGWYRQAPGKERELVAAINSGGGTYYADSVKGRFTISRDNAKNTVYFQMNSLKPEDTAVYYCAAARRYGNYDYWGQGTQVTVSS” was “low polyreactivity”. The value for “QVQLQESGGGLVQAGGSLRLSCAASGTISTDSYMGWYRQAPGKERKFVASIGYGGITYYADSVKGRSTISRDSAKNTVYLQMNSLKPEDTAVYYCAVNSYYPDHYWYWGRGTQVTVSS” was “high polyreactivity”; that for “QVQLVESGGGLVQAGGSLRLSCAASGSIFGYNAMGWYRQAPGKERELVAAINYNGGRTYYADSVKGRFTISRDNAKNTVYLQMNSLKPEDTAVYYCATQGRSLYYRYDYWGQGTQVTVSS” was “high polyreactivity”. To “QVQLVESGGGLVQAGGILRLSCAASGSIFQYNAKGWYIQEPGKEREFVAAISGSGTTTYYADSVKGRFTISRDNAKNTVYLQMNSLKPEDTAVYYCAKAIRHYPDVAYNAWGQGSQVTVSS” belongs “high polyreactivity”; to “QVQLVESGGGLVQAGGSLRLSCAASGSIVYTNALGWSRQAPAKERELVAAISGSGGNTYYADSVKVRFTISRDNAKNTVYLQMNSLNPEDTAVYYCAADRNAYYYDSYYYWGLGTQVTVSS”, “high polyreactivity”; to “QDQLVESGGGLVQAGGSLRLSCAASGFTFTRNAMGWYRQAPGKERELVAAISRGGSTNYADSVKGRFTISRDNAKNTVYLQMNSLKPEDTAVYYCAKVRTRGTPGVDYYYWGQGTQVTVSS”, “high polyreactivity”. Take “QFQLVESGGGLVQAGGSLRLSCAASGRILSIYAMGWYSQAPGKESEMVAGITGGGRTHSADSVKGRFTISRDNAKNTVYLQMYSLKPEDTAVYSCSSLWRYQYRSKLSYYYWGQGTQVTVSS”: the “polyreactivity (PSR sort gate)” value is on record as “high polyreactivity”.

As for “QVQLVESGGRLVQAGGSLRLSCAASGSILTYYTMGWYRQAPGKERELVARISWSGSRTYYADSVKGRFTISRDNAKNTVYLQMNSLKPEDTAVYYCAAKANWYANYDYWGQGTQVTVSS”, the “polyreactivity (PSR sort gate)” value is reported as “high polyreactivity”.

Regarding “QVQLVESGGGLVQAGGSLRLSCAASGSIFYISAMGWYRQAPGKERELVAAISWIDDTTYYADSVKGRFTISRDNAKNTVYLQMNSLKPEDTAVYYCAAELENVYAGGQMDYWGQGTQVTVSS”, the “polyreactivity (PSR sort gate)” value is on record as “high polyreactivity”. The value for “QVQIVESGGGLVQAGGSLRLSCAASGITFVGNAMVWYRQAPGKERELVAVISRGDSTNYADSVKGLFTISRDNAKNTVYLQMNSLKPEDTAVYYCAADGSRAGQEGNDYWGQGTQVSVSS” was “low polyreactivity”; that for “LVQLVESGGGLVQAGGSLRLSCAASGRTFPGYAMGGYSQAPGKERELVASINFRGGGTYADSVKGRFTISRDNAKNTVYLLMNSLKPEDTAVYYCAAEYFWGKRRFGYWGQGTQVTVSS” was “high polyreactivity”; that for “QVQLVESGGGLVQAGGSLRLSCAASGRTFEYYAMGWYRQAPGKERDLVAAISTSGGSTYYADSVKGRFTISRDNAKNTVYLQMNSLKPEDTAVYYCNKVQSTANDYWGQGTQVTVSS” was “low polyreactivity”. The value for “QVQLVESGGGLVQAGGSLRLSCAASGRIFYNYSMGWYRQAPGKEREVVAAISGSGGSTYYADSVKGRFTISRDNAKNTVYLQMNSLKPEDTAVYYGSTSGGQYYSRNFEYWGQGTQVTVSS” was “low polyreactivity”; that for “QVQLVESGGGLVQAGGSLRLSCAASGFIFYKYAMGWYRQAPGKERELVAAISRGGTTTYADSVKGRFTISRDNAKNTVYLQMNSLKPEDTAVYYCNKYFRYRYDYWGQGTQVTVSS” was “high polyreactivity”.

(Values after the nanobody polyreactivity screen of Harvey et al. (2022).)
